We go through one molecule from patent publication US20200165335A1 (Seagen, published 2020).

“And” between values parts separate entries of the source, which are not always exact repeats. Equal values may be shown once.

Assay [1] concerns the target T1, human LIV-1 (human, UniProt Q13433 29-755).
T1 construct: also called hLIV-1; Q13433
T1 sequence: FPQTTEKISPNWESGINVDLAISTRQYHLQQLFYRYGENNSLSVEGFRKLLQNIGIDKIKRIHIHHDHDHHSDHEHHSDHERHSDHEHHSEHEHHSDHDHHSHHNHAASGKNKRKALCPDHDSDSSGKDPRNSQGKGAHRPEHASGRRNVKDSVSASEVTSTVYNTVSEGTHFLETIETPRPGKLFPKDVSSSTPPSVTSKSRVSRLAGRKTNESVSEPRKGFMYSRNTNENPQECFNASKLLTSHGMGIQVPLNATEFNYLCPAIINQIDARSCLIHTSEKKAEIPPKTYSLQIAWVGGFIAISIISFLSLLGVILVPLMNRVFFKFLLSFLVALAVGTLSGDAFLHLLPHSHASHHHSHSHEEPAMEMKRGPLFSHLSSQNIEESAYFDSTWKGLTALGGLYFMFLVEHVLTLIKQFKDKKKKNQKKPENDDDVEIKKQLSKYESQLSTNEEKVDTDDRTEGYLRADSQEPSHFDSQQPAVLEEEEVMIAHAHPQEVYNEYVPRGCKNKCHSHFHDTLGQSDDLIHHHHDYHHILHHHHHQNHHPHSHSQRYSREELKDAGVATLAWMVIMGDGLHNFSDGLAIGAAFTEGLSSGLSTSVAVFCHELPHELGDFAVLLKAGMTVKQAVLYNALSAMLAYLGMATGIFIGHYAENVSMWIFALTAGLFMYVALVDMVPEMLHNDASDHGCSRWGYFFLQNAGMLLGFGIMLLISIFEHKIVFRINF
The experiment in a line: saturation binding, CHO cells expressing human or cyno LIV-1 (FIG. 22).

In assay [2] the target is T1, human LIV-1. The experiment in a line: comparison of the EC50s of Table 3, CHO cells expressing human LIV-1. How it is done:
(§1) 1×10⁵ CHO cells expressing recombinant human LIV-1 in PBS/BSA were aliquoted into each well of a 96-well v-bottom plates on ice. […] Cells were pelleted and washed 3 times with PBS/BSA. The cells were pelleted and resuspended in 125 μL of PBS/BSA. Fluorescence was analyzed by flow cytometry, using percent of saturated fluorescent signal to determine percent labeled murine LIV-1 mAb bound and to subsequently extrapolate the EC50 by fitting the data to a sigmoidal dose-response curve with variable slope.

Assay [3] concerns the target T2, human LIV-1 (UniProt Q13433 29-755).
T2 chain: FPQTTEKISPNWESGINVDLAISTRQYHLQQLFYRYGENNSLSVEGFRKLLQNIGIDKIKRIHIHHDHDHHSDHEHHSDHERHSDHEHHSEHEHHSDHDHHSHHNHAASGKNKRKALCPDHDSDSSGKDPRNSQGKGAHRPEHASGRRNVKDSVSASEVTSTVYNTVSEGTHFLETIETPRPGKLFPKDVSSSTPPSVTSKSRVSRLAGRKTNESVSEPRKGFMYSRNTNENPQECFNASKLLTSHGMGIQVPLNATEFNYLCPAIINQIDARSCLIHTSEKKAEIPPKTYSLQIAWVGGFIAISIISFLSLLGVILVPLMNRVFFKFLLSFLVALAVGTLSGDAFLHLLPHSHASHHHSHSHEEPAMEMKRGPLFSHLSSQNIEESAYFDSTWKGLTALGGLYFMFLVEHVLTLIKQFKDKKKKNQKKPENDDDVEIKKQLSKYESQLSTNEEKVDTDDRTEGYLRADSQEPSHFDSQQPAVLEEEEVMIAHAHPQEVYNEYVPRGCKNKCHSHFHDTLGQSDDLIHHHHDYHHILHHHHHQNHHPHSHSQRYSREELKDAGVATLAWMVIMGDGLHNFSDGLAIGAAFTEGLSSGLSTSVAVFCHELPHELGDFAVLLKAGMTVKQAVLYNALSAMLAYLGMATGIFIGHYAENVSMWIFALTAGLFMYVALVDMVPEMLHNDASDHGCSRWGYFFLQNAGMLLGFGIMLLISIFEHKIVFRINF
The experiment in a line: saturation binding on CHO cells; apparent Kd.

The target in assay [4] is T3, cynomolgus monkey LIV-1.
T3 chain: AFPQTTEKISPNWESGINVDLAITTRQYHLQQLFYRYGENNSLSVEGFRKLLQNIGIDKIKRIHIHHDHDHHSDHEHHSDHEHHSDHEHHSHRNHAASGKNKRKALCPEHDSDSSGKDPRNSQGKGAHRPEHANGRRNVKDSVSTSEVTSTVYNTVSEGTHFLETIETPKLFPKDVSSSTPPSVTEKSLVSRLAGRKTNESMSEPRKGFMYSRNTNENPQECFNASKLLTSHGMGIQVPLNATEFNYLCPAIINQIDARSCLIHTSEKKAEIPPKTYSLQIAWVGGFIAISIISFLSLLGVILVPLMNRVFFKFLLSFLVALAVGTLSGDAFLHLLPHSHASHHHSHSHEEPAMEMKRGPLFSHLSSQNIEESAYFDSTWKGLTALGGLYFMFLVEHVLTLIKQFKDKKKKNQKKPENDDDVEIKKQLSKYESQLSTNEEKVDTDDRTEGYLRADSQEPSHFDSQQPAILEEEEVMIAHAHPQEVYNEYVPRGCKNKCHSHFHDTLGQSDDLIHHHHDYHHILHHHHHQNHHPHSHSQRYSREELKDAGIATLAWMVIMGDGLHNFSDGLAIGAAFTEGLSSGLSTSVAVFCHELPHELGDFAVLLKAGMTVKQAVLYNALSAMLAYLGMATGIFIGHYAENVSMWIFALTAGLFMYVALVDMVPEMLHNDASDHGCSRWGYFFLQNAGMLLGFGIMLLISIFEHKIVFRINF
Briefly: saturation binding on CHO cells; apparent Kd.

Assay [5] has as its target T2, human LIV-1. Briefly: competition binding on CHO hLIV1 cells.
Assay [6] has as its target T2, human LIV-1. The experiment in a line: saturation binding, flow cytometry on MCF7 cells; AF-labeled. A general note: A flow cytometer gives signals particle by particle.
Assay [7] deals with T1, human LIV-1. Briefly: average of several saturation binding curves, flow cytometry, MCF7 cells.
Assay [8] addresses T1, human LIV-1. The experiment in a line: competition flow cytometry, CHO cells expressing human LIV-1, vs 5 nM AF647-labelled BR2-14a. How it is done:
as §1

Assay [9] deals with T4, cynomolgus monkey LIV-1 (cynomolgus monkey, UniProt Q5R9M9 28-743 (Pongo abelii entry)).
T4 construct: Recombinant on transfected CHO cells; also called cyno LIV-1; cyLIV-1
T4 chain: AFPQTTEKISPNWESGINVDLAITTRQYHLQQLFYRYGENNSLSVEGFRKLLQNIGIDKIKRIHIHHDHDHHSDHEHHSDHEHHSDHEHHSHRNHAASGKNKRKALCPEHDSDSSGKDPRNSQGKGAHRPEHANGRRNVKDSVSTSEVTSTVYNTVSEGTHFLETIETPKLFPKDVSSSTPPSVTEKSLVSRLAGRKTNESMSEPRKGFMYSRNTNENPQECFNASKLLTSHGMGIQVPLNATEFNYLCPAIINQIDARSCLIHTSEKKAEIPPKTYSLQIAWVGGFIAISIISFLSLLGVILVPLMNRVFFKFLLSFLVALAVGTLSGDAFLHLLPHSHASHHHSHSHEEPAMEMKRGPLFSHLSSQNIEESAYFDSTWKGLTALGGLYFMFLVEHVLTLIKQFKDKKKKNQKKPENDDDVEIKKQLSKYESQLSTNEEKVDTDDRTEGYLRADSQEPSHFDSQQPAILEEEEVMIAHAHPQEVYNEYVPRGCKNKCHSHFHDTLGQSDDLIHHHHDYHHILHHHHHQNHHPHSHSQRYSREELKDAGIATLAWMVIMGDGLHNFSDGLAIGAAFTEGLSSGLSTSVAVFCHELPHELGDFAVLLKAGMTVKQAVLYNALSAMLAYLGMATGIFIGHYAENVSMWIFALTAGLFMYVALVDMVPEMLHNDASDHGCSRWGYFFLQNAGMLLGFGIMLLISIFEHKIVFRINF
Briefly: EC50 determination, CHO cells expressing recombinant cyno LIV-1. How it is done: 1×10⁵ CHO cells expressing recombinant cyno LIV-1 in PBS were aliquoted in each well of a 96-well v-bottom plates on ice. […] Cells were pelleted and washed 3 times with PBS. The cells were pelleted and resuspended in 125 μL of PBS/BSA. Fluorescence was analyzed by flow cytometry, using percent of saturated fluorescent signal to determine percent labeled murine LIV-1 mAb bound and to subsequently extrapolate the EC50 by fitting the data to a sigmoidal dose-response curve with variable slope.

B1: humanized BR2-14a antibody HBLB (hLIV14) (antibody, human IgG1, V domains shown)
VH: QVQLVQSGAEVKKPGASVKVSCKASGYTIEDYYMHWVRQAPGQGLEWMGWIDPENGDTEYAPTFQGRVTMTRDTSINTAYMELSRLRSDDTAVYYCARHDAHYGTWFAYWGQGTLVTVSS
VL: DVVMTQSPLSLPVTLGQPASISCRSSQSIIRNDGNTYLEWYQQRPGQSPRRLIYRVSNRFSGVPDRFSGSGSGTDFTLKISRVEAEDVGVYYCFQGSHVPYTFGGGTKVEIKR
notes: also called hLIV-14 HBLB WT; LIV-1 mAb HBLB
In the case of B1, in the assay with human LIV-1 [1], the “fold affinity for human LIV-1 relative to cynomolgus LIV-1” value was 2 fold. Further, in the assay with human LIV-1 [2], the “fold better binding than the next humanized antibody HBLF” value was no less than 2 fold. In addition, the Kd with human LIV-1 [3] is 4.3 nM; with cynomolgus monkey LIV-1 [4] it was 2.1 nM; in the assay with human LIV-1 [6], 0.4 µg/mL and 2.9 nM; in the assay with human LIV-1 [7] it was 1.5 nM. The EC50 stood at 0.642 µg/mL with human LIV-1 [5] and 0.3 µg/mL with human LIV-1 [8]. Moreover, in the assay with cynomolgus monkey LIV-1 [9], the binding result is reported as “binds”.

The EC50 is the concentration giving half of the maximal effect.
